Reference: patent US20260242458A1 (NOVAROCK BIOTHERAPEUTICS, published 2026)
Residue numbers refer to the chain shown, from its start.

T1: recombinant human IL-25 protein (human, UniProt Q9H293 33-177)
T1 sequence: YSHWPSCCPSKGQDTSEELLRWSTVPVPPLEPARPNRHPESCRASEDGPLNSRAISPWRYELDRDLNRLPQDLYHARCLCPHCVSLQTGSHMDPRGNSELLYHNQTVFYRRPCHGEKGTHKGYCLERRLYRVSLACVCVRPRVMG

T2: recombinant cynomolgus IL-25 protein (cynomolgus monkey, UniProt Q9H293 33-177 (human entry), limits assumed)
T2 construct: Bought (Sino Biological Inc, customized order); also called cyno IL-25
T2 chain: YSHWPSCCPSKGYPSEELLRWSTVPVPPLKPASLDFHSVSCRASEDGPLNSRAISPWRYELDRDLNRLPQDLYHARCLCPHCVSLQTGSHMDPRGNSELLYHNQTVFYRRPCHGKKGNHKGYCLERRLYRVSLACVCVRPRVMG

T3: recombinant mouse IL-25 protein (mouse, UniProt Q8VHH8 17-169)
T3 construct: Bought (Sino Biological Inc, catalog no: 50138-M07H)
T3 sequence: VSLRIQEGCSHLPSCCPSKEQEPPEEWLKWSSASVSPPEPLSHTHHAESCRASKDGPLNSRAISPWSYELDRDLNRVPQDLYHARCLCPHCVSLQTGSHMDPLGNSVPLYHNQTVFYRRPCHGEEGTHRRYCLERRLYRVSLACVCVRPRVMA

B1: IL25Ab7 (antibody, IgG1, V domains shown)
VH: QVQLVQSGAEVKKPGASVKVSCKASGYSFTGYTMNWVRQAPGQGLEWMGLINPDNGGTSYKQKFQGRVTMTVDKSISTAYMELSRLRSDDTAVYYCAREGYYGPSPFHHYAMDYWGQGTLVTVSS
VL: DIQMTQSPSSLSASVGDRVTITCQASQDISNYLNWYQQKPDGTIKLLIYYTSTLHTGVPSRFSGSGSGTDYTFTISSLQPEDIATYYCQQYSKLPYTFGQGTKLEIK
B2: IL25Ab10 (antibody, V domains shown)
VH: B1 VH
VL: B1 VL
B3: IL25Ab9 (antibody, V domains shown)
VH: B1 VH
VL: B1 VL with D41G, G42K, T43A, I44P
B4: IL25Ab8 (antibody, IgG1, V domains shown)
VH: B1 VH with P41H, Q43K, G44N, Y60H
VL: B1 VL with F73L, Q100G
B5: IL25Ab11 (antibody, IgG1, V domains shown)
VH: B1 VH with P41H, Q43K, G44N, Y60H
VL: B1 VL with F73L, Q100G
B6: IL25Ab6 (antibody, V domains shown)
VH: B1 VH
VL: B1 VL with D41G, G42K, T43A, I44P
B7: IL25Ab2 (antibody, V domains shown)
VH: QVTLKESGPGILQPSQTLSLTCSFSGFSLSTSGMGVGWIRQPSGKGLEWLAHIWWDDVKQYNPALQSRLTISKDTSSSQVFLKIASVDIADIATYYCARIGPVHHGFPYWGQGALVTVSS
VL: QIVLTQSPAIMSAFPGEKVTMSCSASSSVNYMYWHQQKPGSSPRLLIYDTSNLASGVPVRFSGSGSGTSYSLTISRMEAEDAATYYCQQWTSYPPMYTFGGGTKLEIK
B8: IL25Ab4 (antibody, V domains shown)
VH: QVTLKESGPGILQPSQTLSLTCSFSGFSLSTSGMGVSWIRQPSGKGLEWLAHIYWDDAKFYNPSLKSRVTISKDTSRNQVFLRITSVDTADIATYYCARRGYDNYGGFVDWGQGTLVTVSS
VL: ENVLIQSPAIMSASLGEKVTMSCRASSSVNYMYWYQQKSDAPPKLWIYYTSNLAPGVPGRFSGSGSGNSYSLTISSMEGEDAATYYCQQFTSYPYMYTFGGGTKLEIK
B9: IL25Ab1 (antibody, V domains shown)
VH: QVQLKESGPGLVAPSQSLSITCTVSGFSLTDYGINWVRQPPGKGLEWLGMIWGDGVTHYNSVLKSRLSISKDNSMSQIFLKMNSLQTDDTARYYCARTLFYDGTLYYYAMDYWGQGTSVTVSS
VL: QIVLTQSPATMSASPGEKVTMTCSASSSVTYMYWYQQKTGSSPRLLIYDTPNLASGVPVRFSGSGSGTSYSLTISRVEAEDAATYYCQQWSSYPHTWTFGGGTKLEIK
B10: IL25Ab5 (antibody, V domains shown)
VH: QVQLQQWGAGLLKPSETLSLTCAVYGGSFSAYYWSWIRQSPGKGLEWIGEINHGGNTNYSPSLKSRVTISVDTSKSQFSLKLSSVTAADTAAYYCARGPGITSWAFDFWDQGTMVTVSS
VL: DIQMTQSPSSLSASVGDRVTIACQASQDINNYLNWYQQKPGKAPKLLIYDASNLETGVPSRFSGNGSGTDFTFTISSLQPEDIATFYCQQYDTLPYTFGQGTKLEIR

Target: T1, recombinant human IL-25 protein
Test: cell-based or functional assay

IC50, IL-25 induced NF-kB signaling (SEAP) in HEK-Blue IL-17 reporter cells [pM]	Binder
42	B1
52	B2
43	B3
41	B4
37	B5
48	B6

Target: T1, recombinant human IL-25 protein
Test: ELISA, IL-25 coated, goat anti-human kappa light chain-HRP detection
Method: (§1) In this study, the ability of three humanized anti-IL-25 antibodies generated in hIgG1 (IL25Ab6 to Ab8) and hIgG1 YTE formats (IL25Ab9 to Ab11) binding to both human, mouse and cynomolgus IL-25 was evaluated using ELISA. Briefly, recombinant human IL-25 protein (Acro, catalog no: IL5-H4221, lot no: 401-20CNF1-UT), recombinant mouse IL-25 protein (Sino Biological Inc, catalog no: 50138-M07H, lot no: LC15AP0607) or recombinant cynomolgus IL-25 protein (Sino Biological Inc, catalog no: customized order, lot no: MB17MA2715) was directly coated to ELISA plates, respectively. Recombinant antibodies were then added to the plates followed by detection using goat-anti-human Kappa Light Chain antibody HRP (Novus, catalog no: NBP1-75064, Lot no: 68-188-010920). After the addition of ABTS (Moss Inc., catalog no: ABTS-1000, Lot no: 03086202) substrate, ELISA plates were read using an ELISA plate reader (Bioteck).

EC50 [pM]	Binder
327	B1
364	B2
312	B3
404	B4
318	B5
302	B6

Target: T2, recombinant cynomolgus IL-25 protein
Test: as above
Method: as §1

EC50 [pM]	Binder
245	B1
266	B2
222	B3
295	B4
239	B5
241	B6

Target: T3, recombinant mouse IL-25 protein
Test: as above
Method: as §1

EC50 [pM]	Binder
243	B1
284	B2
232	B3
332	B4
258	B5
242	B6

Target: T1, recombinant human IL-25 protein
Test: cell-based or functional assay
Remark: another data set of the same source

IC50, IL-25 induced IL-5 production in human PBMC [pM]	Binder
850	B1
1430	B2
435	B3
1040	B4
953	B5
381	B6

Target: T1, recombinant human IL-25 protein
Test: cell-based or functional assay
Remark: another data set of the same source

IC50, IL-25 induced CXCL1 production in HT-29 cells [pM]	Binder
183	B1
198	B2
225	B3
199	B4
187	B5
225	B6

Target: T1, recombinant human IL-25 protein
Test: cell-based or functional assay
Remark: another data set of the same source

IC50, IL-25 induced IL-5 production in human PBMC [pM]	Binder
140	B7
150	B8
120	B9
260	B10

Target: T1, recombinant human IL-25 protein
Test: ELISA, IL-25 coated, goat anti-human IgG-HRP detection
Method: (§2) In this study, the ability of five disclosed anti-IL-25 antibodies (IL25Ab1 to Ab5) binding to both human and mouse IL-25 was evaluated using ELISA. Briefly, recombinant human IL-25 protein (Acro, catalog no: IL5-H4221, lot no: 401-20CNF1-UT) or recombinant mouse IL-25 protein (Sino Biological Inc, catalog no: 50138-M07H, lot no: LC15AP0607) was directly coated to ELISA plates, respectively. Recombinant antibodies were then added to the plates followed by detection using goat-anti-human IgG-HRP (Jackson ImmunoResearch, catalog no: 109-035-098, Lot no: 157400). After the addition of ABTS (Moss Inc., catalog no: ABTS-1000, Lot no: 03086202) substrate, ELISA plates were read using an ELISA plate reader (Bioteck).

EC50 [pM]	Binder
17	B7
34	B8
20	B9
10	B10

Target: T3, recombinant mouse IL-25 protein
Test: as above
Method: as §2

EC50 [pM]	Binder
12	B7
26	B8
15	B9
35	B10

Target: T2, recombinant cynomolgus IL-25 protein
Test: ELISA: recombinant cynomolgus IL-25 coated on the plate, detection with goat-anti-human Kappa Light Chain antibody HRP, ABTS, OD 405
Method: as §1, with “another” for “this”, “five disclosed” for “three humanized”, “(IL25Ab1” for “generated in hIgG1 (IL25Ab6”, “Ab5)” for “Ab8) and hIgG1 YTE formats (IL25Ab9 to Ab11)”, “to” for “to both human, mouse and”, “401-20CNF1-UT)” for “401-20CNF1-UT), recombinant mouse IL-25 protein (Sino Biological Inc, catalog no: 50138-M07H, lot no: LC15AP0607)”

EC50 (read off the curve) [pM]	Binder
~100	B7
~100	B8
~100	B9
~200	B10

Target: T1, recombinant human IL-25 protein
Test: cell-based or functional assay
Remark: another data set of the same source

IC50, IL-25 induced CXCL1 production in HT-29 cells [pM]	Binder
89	B7
76	B8
71	B9
77	B10

Target: T1, recombinant human IL-25 protein
Test: cell-based or functional assay
Remark: another data set of the same source

IC50, IL-25 induced NF-kB signaling (SEAP) in HEK-Blue IL-17 reporter cells [pM]	Binder
68	B7
73	B8
52	B9
61	B10

Target: T1, recombinant human IL-25 protein
Test: BLI (Octet), antibody captured on anti-human Fc biosensor, human IL-25 as analyte
Method: The binding kinetics of the disclosed anti-IL-25 antibodies to recombinant human IL-25 was determined by Octet® Bio-Layer Interferometry (BLI) systems by Sartorius. The assay uses anti-IL-25 monoclonal antibodies as the ligand and recombinant human IL-25 protein as the analyte.
Briefly, the assays were performed by first capturing 5 μg/ml of anti-IL-25 antibodies using anti-human Fc Octet biosensors. The mAb-captured biosensors were then submerged in wells containing serially diluted human IL-25 for 4-6 minutes, followed by a 10-15 minute dissociation time. The binding sensorgrams were collected and analyzed by the Octet Data Analysis software.

Kd [pM]	koff [s⁻¹]	kon [M⁻¹ s⁻¹]	Binder
< 1	< 1e-07	1.36e+06	B7
< 1	< 1e-07	1.2e+06	B8
< 1	< 1e-07	1.25e+06	B9
< 1	< 1e-07	2.48e+06	B10
